# Data reported in IntAct's records for PubMed 23572552.
# B1: Golgi resident protein GCP60 (Homo sapiens), Q9H3P7 (parent)
# chain: MAAVLNAERLEVSVDGLTLSPDPEERPGAEGAPLLPPPLPPPSPPGSGRGPGASGEQPEPGEAAAGGAAEEARRLEQRWGFGLEELYGLALRFFKEKDGKAFHPTYEEKLKLVALHKQVLMGPYNPDTCPEVGFFDVLGNDRRREWAALGNMSKEDAMVEFVKLLNRCCHLFSTYVASHKIEKEEQEKKRKEEEERRRREEEERERLQKEEEKRRREEEERLRREEEERRRIEEERLRLEQQKQQIMAALNSQTAVQFQQYAAQQYPGNYEQQQILIRQLQEQHYQQYMQQLYQVQLAQQQAALQKQQEVVVAGSSLPTSSKVNATVPSNMMSVNGQAKTHTDSSEKELEPEAAEEALENGPKESLPVIAAPSMWTRPQIKDFKEKIQQDADSVITVGRGEVVTVRVPTHEEGSYLFWEFATDNYDIGFGVYFEWTDSPNTAVSVHVSESSDDDEEEEENIGCEEKAKKNANKPLLDEIVPVYRRDCHEEVYAGSHQYPGRGVYLLKFDNSYSLWRSKSVYYRVYYTR
# B2: Golgi resident protein GCP60 (Homo sapiens), Q9H3P7 (parent)
# chain: B1 chain
# partner: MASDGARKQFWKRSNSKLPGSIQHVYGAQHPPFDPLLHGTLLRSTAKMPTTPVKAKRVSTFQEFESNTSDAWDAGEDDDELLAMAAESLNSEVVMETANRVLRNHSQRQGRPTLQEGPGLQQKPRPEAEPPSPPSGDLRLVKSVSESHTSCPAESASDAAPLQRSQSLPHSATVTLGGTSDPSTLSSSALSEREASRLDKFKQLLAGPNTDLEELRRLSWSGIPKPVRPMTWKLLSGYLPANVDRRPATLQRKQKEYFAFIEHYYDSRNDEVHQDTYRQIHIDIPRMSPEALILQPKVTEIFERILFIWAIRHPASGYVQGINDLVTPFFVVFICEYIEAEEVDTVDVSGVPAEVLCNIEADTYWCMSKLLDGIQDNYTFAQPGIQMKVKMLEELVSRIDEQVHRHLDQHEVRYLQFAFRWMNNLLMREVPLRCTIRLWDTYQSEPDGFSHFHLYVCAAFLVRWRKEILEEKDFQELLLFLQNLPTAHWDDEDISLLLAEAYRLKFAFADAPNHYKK
# B3: Golgi resident protein GCP60 (Homo sapiens), Q9H3P7 (parent)
# chain: B1 chain
# partner: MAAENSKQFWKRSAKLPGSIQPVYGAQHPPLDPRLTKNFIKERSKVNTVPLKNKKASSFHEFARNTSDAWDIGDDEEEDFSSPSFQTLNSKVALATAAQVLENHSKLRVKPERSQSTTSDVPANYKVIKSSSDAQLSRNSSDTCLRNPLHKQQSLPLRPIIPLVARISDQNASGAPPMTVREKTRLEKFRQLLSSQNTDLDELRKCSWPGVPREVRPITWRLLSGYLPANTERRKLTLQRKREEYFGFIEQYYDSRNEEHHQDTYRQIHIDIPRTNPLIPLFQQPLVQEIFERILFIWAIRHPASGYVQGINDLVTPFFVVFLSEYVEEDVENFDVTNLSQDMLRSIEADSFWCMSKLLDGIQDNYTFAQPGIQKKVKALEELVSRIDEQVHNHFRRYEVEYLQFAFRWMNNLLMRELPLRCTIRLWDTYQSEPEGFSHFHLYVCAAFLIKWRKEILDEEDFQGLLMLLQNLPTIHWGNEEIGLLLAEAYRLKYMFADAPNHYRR
# Variants of: B1
# Details: with polg_aiva8 polg
row,Variant,effect of a mutation on the interaction
1,S414A;Y415A;L416A,decreasing interaction strength
2,S511A,with no effect
3,F433A;E434A;W435A,disrupting interaction strength
4,H496A,with no effect
5,F417A;W418A;E419A;F420A,disrupting interaction strength
6,S344A;S345A,with no effect
7,E434A,with no effect
8,Q264A;Q265A;Y266A,with no effect
9,S511A;Y512A;S513A,disrupting interaction strength
10,W435A,with no effect
11,V256A;Q257A;F258A,with no effect
12,E282A;Q283A;H284A;Y285A,with no effect
13,G494A;S495A;H496A,disrupting interaction strength
14,F433A,disrupting interaction strength

# Variants of: B1
# Details: with polg_hkv1 polg
row,Variant,effect of a mutation on the interaction
1,S414A;Y415A;L416A,disrupting interaction strength
2,F433A;E434A;W435A,disrupting interaction strength
3,F417A;W418A;E419A;F420A,disrupting interaction strength
4,S344A;S345A,with no effect
5,Q264A;Q265A;Y266A,with no effect
6,S511A;Y512A;S513A,disrupting interaction strength
7,V256A;Q257A;F258A,with no effect
8,E282A;Q283A;H284A;Y285A,with no effect
9,G494A;S495A;H496A,disrupting interaction strength

# Variants of: B2
# Details: with tb22a_human TBC1D22A
row,Variant,effect of a mutation on the interaction
1,E225A;E226A;E227A;E228A,with no effect
2,C168A;C169A;H170A,with no effect
3,E192A;E193A;E194A;E195A,with no effect
4,E200A;E201A;E202A;E203A,with no effect
5,Q274A;I275A;L276A;I277A,disrupting interaction strength
6,R221A;L222A;R223A;R224A,with no effect
7,K209A;E210A;E211A;E212A,with no effect
8,E184A;E185A;Q186A;E187A,with no effect
9,Y270A;E271A;Q272A;Q273A,with no effect
10,I246A;M247A,disrupting interaction strength
11,R196A;R197A;R198A;R199A,with no effect
12,I246A;M247A;Q253A;T254A,disrupting interaction strength
13,K188A;K189A;R190A;K191A,with no effect
14,E240A;Q241A;Q242A,with no effect
15,R236A;L237A;R238A;L239A,with no effect
16,Q259A;Q260A;Y261A,decreasing interaction strength
17,P267A;G268A;N269A,disrupting interaction strength
18,L164A;L165A;N166A;R167A,with no effect
19,R204A;E205A;R206A;L207A;Q208A,with no effect
20,K213A;R214A;R215A;R216A,with no effect

# Variants of: B2
# Details: with tb22a_human TBC1D22A
# Remark: another data set of the same source
row,Variant,effect of a mutation on the interaction
1,V256A;Q257A;F258A,disrupting interaction strength
2,E282A;Q283A;H284A;Y285A,disrupting interaction strength
3,F433A;E434A;W435A,with no effect
4,S344A;S345A,with no effect
5,S511A;Y512A;S513A,with no effect
6,F417A;W418A;E419A;F420A,with no effect
7,S414A;Y415A;L416A,with no effect
8,G494A;S495A;H496A,with no effect
9,Q264A;Q265A;Y266A,with no effect

# Variants of: B3
# Details: with tb22b_human TBC1D22B
row,Variant,effect of a mutation on the interaction
1,S511A;Y512A;S513A,with no effect
2,Y261A,decreasing interaction strength
3,K243A,with no effect
4,F258A,decreasing interaction strength
5,Q253A,with no effect
6,T254A,with no effect
7,I275A,with no effect
8,Y288A,disrupting interaction strength
9,V256A;Q257A;F258A,disrupting interaction strength
10,Y285A,decreasing interaction strength
11,Q259A,with no effect
12,S414A;Y415A;L416A,with no effect
13,S344A;S345A,with no effect
14,H284A,disrupting interaction strength
15,Q244A,with no effect
16,F417A;W418A;E419A;F420A,with no effect
17,Q264A;Q265A;Y266A,with no effect
18,E282A;Q283A;H284A;Y285A,disrupting interaction strength
19,I246A,decreasing interaction strength
20,Q260A,with no effect
21,Q287A,with no effect
22,Q245A,with no effect
23,L276A,decreasing interaction strength
24,G494A;S495A;H496A,with no effect
25,Q286A,with no effect
26,Q257A,decreasing interaction strength
27,S511A,decreasing interaction strength
28,F433A;E434A;W435A,with no effect

# Variants of: B3
# Details: with tb22b_human TBC1D22B
# Remark: another data set of the same source
row,Variant,effect of a mutation on the interaction
1,Q259A;Q260A;Y261A,with no effect
2,P267A;G268A;N269A,disrupting interaction strength
